In paper PMC9771472, “Tenuous transcriptional threshold of human sex determination. II. SRY exploits water-mediated clamp at the edge of ambiguity”:

Key:
SRY HMG box WT [1] = target: T1, SRY HMG box WT (human, UniProt Q05066 57-141); test: steady-state FRET; reference; Kd values in Table S7 not in material; FRET: 10 mM potassium phosphate, 10 mM Tris-HCl, 140 mM KCl, pH 8.0, 15 and 37 C, 25 nM DNA (Kd); sf-FRET 1 uM complex + 20 uM unlabelled DNA at 10, 15, 25, 37; conditions: protein: recombinant; label: 5'-fluorescein (upper strand); 5'-TAMRA (lower strand), hexanyl linkers; blunt
T1 sequence (Q05066 57-141): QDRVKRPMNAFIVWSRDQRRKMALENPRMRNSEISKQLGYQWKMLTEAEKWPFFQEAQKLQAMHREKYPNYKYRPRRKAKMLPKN

SRY HMG box Y72W [2] = target: T2, SRY HMG box Y72W (human, UniProt Q05066 57-141, Y127W); test: steady-state FRET; stopped-flow FRET; high affinity retained; slight koff increase; FRET: 10 mM potassium phosphate, 10 mM Tris-HCl, 140 mM KCl, pH 8.0, 15 and 37 C, 25 nM DNA (Kd); sf-FRET 1 uM complex + 20 uM unlabelled DNA at 10, 15, 25, 37; conditions: protein: recombinant; label: 5'-fluorescein (upper strand); 5'-TAMRA (lower strand), hexanyl linkers; blunt
T2 sequence (Q05066 57-141 Y127W): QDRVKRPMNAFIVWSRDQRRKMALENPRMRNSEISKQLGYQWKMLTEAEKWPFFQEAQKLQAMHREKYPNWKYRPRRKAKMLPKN

SRY HMG box Y72C = SRY HMG box Y72C (human, UniProt Q05066 57-141, Y127C); test: stopped-flow FRET; near-native affinity (Kd from companion paper); koff 26(+/-1.3)-fold faster than WT at 10 C; FRET: 10 mM potassium phosphate, 10 mM Tris-HCl, 140 mM KCl, pH 8.0, 15 and 37 C, 25 nM DNA (Kd); sf-FRET 1 uM complex + 20 uM unlabelled DNA at 10, 15, 25, 37; conditions: protein: recombinant; label: 5'-fluorescein (upper strand); 5'-TAMRA (lower strand), hexanyl linkers; blunt
Chain of SRY HMG box Y72C (Q05066 57-141 Y127C): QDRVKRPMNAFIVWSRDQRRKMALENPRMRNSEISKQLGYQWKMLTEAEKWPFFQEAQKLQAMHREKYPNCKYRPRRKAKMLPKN

SRY HMG box Y72H = SRY HMG box Y72H (human, UniProt Q05066 57-141, Y127H); test: stopped-flow FRET; near-native affinity (Kd from companion paper); koff 14(+/-0.38)-fold faster than WT at 10 C; FRET: 10 mM potassium phosphate, 10 mM Tris-HCl, 140 mM KCl, pH 8.0, 15 and 37 C, 25 nM DNA (Kd); sf-FRET 1 uM complex + 20 uM unlabelled DNA at 10, 15, 25, 37; conditions: protein: recombinant; label: 5'-fluorescein (upper strand); 5'-TAMRA (lower strand), hexanyl linkers; blunt
Chain of SRY HMG box Y72H (Q05066 57-141 Y127H): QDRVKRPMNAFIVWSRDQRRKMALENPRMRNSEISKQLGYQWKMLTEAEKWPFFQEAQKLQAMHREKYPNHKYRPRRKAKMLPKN

SRY HMG box Y72F [3] = target: T3, SRY HMG box Y72F (human, UniProt Q05066 57-141, Y127F); test: steady-state FRET; stopped-flow FRET; native-like affinity; koff about 4-fold faster than WT at 37 C, compensated by kon; FRET: 10 mM potassium phosphate, 10 mM Tris-HCl, 140 mM KCl, pH 8.0, 15 and 37 C, 25 nM DNA (Kd); sf-FRET 1 uM complex + 20 uM unlabelled DNA at 10, 15, 25, 37; conditions: protein: recombinant; label: 5'-fluorescein (upper strand); 5'-TAMRA (lower strand), hexanyl linkers; blunt
T3 sequence (Q05066 57-141 Y127F): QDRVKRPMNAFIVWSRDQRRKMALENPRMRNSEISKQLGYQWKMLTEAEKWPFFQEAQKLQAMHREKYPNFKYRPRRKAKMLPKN

SRY HMG box Y72A = SRY HMG box Y72A (human, UniProt Q05066 57-141, Y127A); test: CD; 25 uM each; least shifted toward A-DNA; FRET: 10 mM potassium phosphate, 10 mM Tris-HCl, 140 mM KCl, pH 8.0, 15 and 37 C, 25 nM DNA (Kd); sf-FRET 1 uM complex + 20 uM unlabelled DNA at 10, 15, 25, 37; conditions: protein: recombinant; blunt
Chain of SRY HMG box Y72A (Q05066 57-141 Y127A): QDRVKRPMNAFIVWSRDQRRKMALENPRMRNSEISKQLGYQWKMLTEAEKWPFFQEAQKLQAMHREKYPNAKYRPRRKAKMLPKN

SRY HMG box Y72W [4] = target: T2, SRY HMG box Y72W; test: CD; 25 uM each; A-form features in bound DNA; FRET: 10 mM potassium phosphate, 10 mM Tris-HCl, 140 mM KCl, pH 8.0, 15 and 37 C, 25 nM DNA (Kd); sf-FRET 1 uM complex + 20 uM unlabelled DNA at 10, 15, 25, 37; conditions: protein: recombinant; blunt
SRY HMG box Y72F [5] = target: T3, SRY HMG box Y72F; test: NMR (1H imino, NOESY, 15N HSQC); CD; 1:1, 25 C, 10 mM K-phosphate pH 7.4, 50 mM KCl (NMR); FRET: 10 mM potassium phosphate, 10 mM Tris-HCl, 140 mM KCl, pH 8.0, 15 and 37 C, 25 nM DNA (Kd); sf-FRET 1 uM complex + 20 uM unlabelled DNA at 10, 15, 25, 37; conditions: protein: recombinant; blunt
SRY HMG box WT [6] = target: T1, SRY HMG box WT; test: as above; conditions: protein: recombinant; blunt

Measured: binding result

B1: 15-bp SRY site, FRET-labelled (dsDNA)
DNA 1: TCGGTGATTGTTCAG
DNA 2: CTGAACAATCACCGA
binds: SRY HMG box WT [1] | SRY HMG box Y72W [2] | SRY HMG box Y72C | SRY HMG box Y72H | SRY HMG box Y72F [3]

B2: 15-bp SRY site, unlabelled (dsDNA)
DNA 1: TCGGTGATTGTTCAG
DNA 2: CTGAACAATCACCGA
binds: SRY HMG box Y72A | SRY HMG box Y72W [4] | SRY HMG box Y72F [5] | SRY HMG box WT [6]
